One assay has as its target T1, Ple E12–24 (M546–E1128) (rat, UniProt P30427 546-1128).
T1 sequence (looked up): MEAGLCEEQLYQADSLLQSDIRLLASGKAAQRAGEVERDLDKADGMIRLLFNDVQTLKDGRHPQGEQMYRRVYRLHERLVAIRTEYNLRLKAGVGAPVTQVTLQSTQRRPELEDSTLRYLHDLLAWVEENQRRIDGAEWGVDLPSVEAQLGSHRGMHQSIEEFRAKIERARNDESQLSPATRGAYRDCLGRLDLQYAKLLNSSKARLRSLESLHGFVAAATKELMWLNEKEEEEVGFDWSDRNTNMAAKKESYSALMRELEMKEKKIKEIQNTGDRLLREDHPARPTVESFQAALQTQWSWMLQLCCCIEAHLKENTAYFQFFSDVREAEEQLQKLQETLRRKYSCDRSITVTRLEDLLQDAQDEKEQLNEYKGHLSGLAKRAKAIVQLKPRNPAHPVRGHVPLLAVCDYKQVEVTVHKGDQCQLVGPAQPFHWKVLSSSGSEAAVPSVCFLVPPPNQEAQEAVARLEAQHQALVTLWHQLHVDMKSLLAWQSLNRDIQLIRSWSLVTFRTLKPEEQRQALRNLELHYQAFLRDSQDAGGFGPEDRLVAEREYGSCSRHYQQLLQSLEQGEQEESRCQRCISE
Briefly: far-Western, overlay or dot blot.

The target in a further assay is T2, Ple R4–C (L3850–A4687) (rat, UniProt P30427 3850-4687).
T2 sequence (looked up): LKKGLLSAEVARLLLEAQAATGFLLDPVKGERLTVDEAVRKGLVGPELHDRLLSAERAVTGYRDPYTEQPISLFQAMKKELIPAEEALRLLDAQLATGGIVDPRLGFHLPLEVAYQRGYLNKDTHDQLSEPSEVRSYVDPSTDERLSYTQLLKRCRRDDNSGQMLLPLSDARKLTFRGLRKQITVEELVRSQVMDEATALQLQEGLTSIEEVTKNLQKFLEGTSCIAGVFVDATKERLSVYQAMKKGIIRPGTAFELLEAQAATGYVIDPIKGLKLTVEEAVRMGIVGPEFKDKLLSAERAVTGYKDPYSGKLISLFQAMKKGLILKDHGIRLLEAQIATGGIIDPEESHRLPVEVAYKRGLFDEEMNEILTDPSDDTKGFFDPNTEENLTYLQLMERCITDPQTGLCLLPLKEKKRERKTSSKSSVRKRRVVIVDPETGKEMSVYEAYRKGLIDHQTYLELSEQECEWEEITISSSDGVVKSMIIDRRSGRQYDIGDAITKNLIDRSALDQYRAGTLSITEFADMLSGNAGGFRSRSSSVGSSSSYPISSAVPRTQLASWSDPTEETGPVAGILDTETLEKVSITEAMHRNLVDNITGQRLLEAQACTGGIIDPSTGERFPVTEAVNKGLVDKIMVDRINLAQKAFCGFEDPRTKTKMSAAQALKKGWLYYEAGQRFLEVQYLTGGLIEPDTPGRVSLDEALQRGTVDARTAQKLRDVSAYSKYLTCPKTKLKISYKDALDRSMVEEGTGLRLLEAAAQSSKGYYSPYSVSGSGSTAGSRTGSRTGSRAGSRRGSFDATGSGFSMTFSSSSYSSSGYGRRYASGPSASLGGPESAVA
Briefly: far-Western, overlay or dot blot.

Assay [1] deals with T3, Dys WW-ZZ, WW-ZZ domain (A3041–M3356) of human dystrophin (human, UniProt P11532 3041-3356).
T3 sequence (looked up): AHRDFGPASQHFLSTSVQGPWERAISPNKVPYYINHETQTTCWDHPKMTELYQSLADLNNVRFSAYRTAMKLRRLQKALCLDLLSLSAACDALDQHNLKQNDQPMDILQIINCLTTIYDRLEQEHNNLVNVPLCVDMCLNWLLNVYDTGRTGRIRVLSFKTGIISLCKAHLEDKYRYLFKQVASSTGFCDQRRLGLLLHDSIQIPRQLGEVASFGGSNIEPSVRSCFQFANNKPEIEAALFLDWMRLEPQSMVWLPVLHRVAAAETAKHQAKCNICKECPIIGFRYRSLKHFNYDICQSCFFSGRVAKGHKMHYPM
The assay is described as follows: far-Western, overlay or dot blot.

The next assay concerns the target T4, Utr WW-ZZ (A2798–M3113) (human, UniProt P46939 2798-3113).
T4 sequence (looked up): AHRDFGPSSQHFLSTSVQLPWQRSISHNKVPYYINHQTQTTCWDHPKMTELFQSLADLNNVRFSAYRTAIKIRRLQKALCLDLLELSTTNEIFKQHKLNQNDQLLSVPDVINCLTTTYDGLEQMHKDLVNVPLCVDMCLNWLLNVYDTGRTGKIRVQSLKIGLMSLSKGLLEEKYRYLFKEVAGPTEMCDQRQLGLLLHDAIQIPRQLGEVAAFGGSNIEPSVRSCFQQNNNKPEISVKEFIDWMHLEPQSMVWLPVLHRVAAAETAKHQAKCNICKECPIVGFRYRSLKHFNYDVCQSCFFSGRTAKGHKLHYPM
Briefly: microtiter plate-binding assay.

B1: βDGcytΔDBS (L765–D857), β-dystroglycan cytoplasmic fragment lacking the dystrophin-binding site (domain or fragment, human, UniProt Q14118 765-857, looked up)
chain: LIAGIIAMICYRKKRKGKLTLEDQATFIKKGVPIIFADELDDSKPPPSSSMPLILQEEKAPLPPPEYPNQSVPETTPLNQDTMGEYTPLRDED
Consider B1, for which the binding result in the assay with Ple E12–24 (M546–E1128) was “binds”.

B2: βDGcyt (L765–P895), cytoplasmic domain of human β-dystroglycan (domain or fragment, UniProt Q14118 765-895, looked up)
chain: LIAGIIAMICYRKKRKGKLTLEDQATFIKKGVPIIFADELDDSKPPPSSSMPLILQEEKAPLPPPEYPNQSVPETTPLNQDTMGEYTPLRDEDPNAPPYQPPPPFTAPMEGKGSRPKNMTPYRSPPPYVPP
On to B2, for which the binding result (in the assay with Ple E12–24 (M546–E1128); in the assay with Ple R4–C (L3850–A4687); in assay [1]) was “binds” throughout.

B3: Eu3+-labeled version of the full-length cytoplasmic domain of βDG (βDGcyt) (domain or fragment, human, UniProt Q14118 765-895, looked up)
chain: B2 chain
modifications: Eu3+ label
Turning to B3, the binding result in the assay with Utr WW-ZZ (A2798–M3113) is given as “binds”.

The values above are taken from PMC2064082 (The Journal of Cell Biology, 2007).
